# In ChEMBL document CHEMBL2073963, “Transport of methotrexate (MTX) and folates by multidrug resistance protein (MRP) 3 and MRP1: effect of polyglutamylation on MTX transport” (Cancer Res, 2001):
# Assays:
# Type in all cases: functional, cell membranes
# [1] = substrate: Nc1nc(=O)c2nc(CNc3ccc(C(=O)N[C@@H](CCC(=O)O)C(=O)O)cc3)cnc2[nH]1; assay: (§1) TP_TRANSPORTER: uptake in membrane vesicles from MRP3-expressing HEK293 cells; conditions: Membrane vesicle
# [2] = substrate: CN(Cc1cnc2nc(N)nc(N)c2n1)c1ccc(C(=O)N[C@@H](CCC(=O)O)C(=O)O)cc1; assay: as §1; conditions: Membrane vesicle
# [3] = substrate: Nc1nc(=O)c2c([nH]1)NCC(CNc1ccc(C(=O)N[C@@H](CCC(=O)O)C(=O)O)cc1)N2C=O; assay: as §1; conditions: Membrane vesicle
# [4] = substrate: CN(Cc1cnc2nc(N)nc(N)c2n1)c1ccc(C(=O)N[C@@H](CCC(=O)O)C(=O)O)cc1; assay: TP_TRANSPORTER: uptake in membrane vesicle from MRP1-expressing NIH3T3 cells
protein,measurement,setting,value
"Multidrug resistance associated protein (Homo sapiens), Q96QA9 (protein) MDALCGSGELGSKFWDSNLSVHTENPDLTPCFQNSLLAWVPCIYLWVALPCYLLYLRHHCRGYIILSHLSKLKMVLGVLLWCVSWADLFYSFHGLVHGRAPAPVFFVTPLVVGVTMLLATLLIQYERLQGVQSSGVLIIFWFLCVVCAIVPFRSKILLAKAEGEISDPFRFTTFYIHFALVLSALILACFREKPPFFSAKNVDPNPYPETSAGFLSRLFFWWFTKMAIYGYRHPLEEKDLWSLKEEDRSQMVVQQLLEAWRKQEKQTARHKASAAPGKNASGEDEVLLGARPRPRKPSFLKALLATFGSSFLISACFKLIQDLLSFINPQLLSILIRFISNPMAPSWWGFLVAGLMFLCSMMQSLILQHYYHYIFVTGVKFRTGIMGVIYRKALVITNSVKRASTVGEIVNLMSVDAQRFMDLAPFLNLLWSAPLQIILAIYFLWQNLGPSVLAGVAFMVLLIPLNGAVAVKMRAFQVKQMKLKDSRIKLMSEILNGIKVLKLYAWEPSFLKQVEGIRQGELQLLRTAAYLHTTTTFTWMCSPFLVTLITLWVYVYVDPNNVLDAEKAFVSVSLFNILRLPLNMLPQLISNLTQASVSLKRIQQFLSQEELDPQSVERKTISPGYAITIHSGTFTWAQDLPPTLHSLDIQVPKGALVAVVGPVGCGKSSLVSALLGEMEKLEGKVHMKGSVAYVPQQAWIQNCTLQENVLFGKALNPKRYQQTLEACALLADLEMLPGGDQTEIGEKGINLSGGQRQRVSLARAVYSDADIFLLDDPLSAVDSHVAKHIFDHVIGPEGVLAGKTRVLVTHGISFLPQTDFIIVLADGQVSEMGPYPALLQRNGSFANFLCNYAPDEDQGHLEDSWTALEGAEDKEALLIEDTLSNHTDLTDNDPVTYVVQKQFMRQLSALSSDGEGQGRPVPRRHLGPSEKVQVTEAKADGALTQEEKAAIGTVELSVFWDYAKAVGLCTTLAICLLYVGQSAAAIGANVWLSAWTNDAMADSRQNNTSLRLGVYAALGILQGFLVMLAAMAMAAGGIQAARVLHQALLHNKIRSPQSFFDTTPSGRILNCFSKDIYVVDEVLAPVILMLLNSFFNAISTLVVIMASTPLFTVVILPLAVLYTLVQRFYAATSRQLKRLESVSRSPIYSHFSETVTGASVIRAYNRSRDFEIISDTKVDANQRSCYPYIISNRWLSIGVEFVGNCVVLFAALFAVIGRSSLNPGLVGLSVSYSLQVTFALNWMIRMMSDLESNIVAVERVKEYSKTETEAPWVVEGSRPPEGWPPRGEVEFRNYSVRYRPGLDLVLRDLSLHVHGGEKVGIVGRTGAGKSSMTLCLFRILEAAKGEIRIDGLNVADIGDPILFSGTLRMNLDPFGSYSEEDIWWALELSHLHTFVSSQPAGLDFQCSEGGENLSVGQRQLVCLARALLRKSRILVLDEATAAIDLETDNLIQATIRTQFDTCTVLTIAHRLNTIMDYTRVLVLDKGVVAEFDSPANLIAARGIFYGMARDAGLA",Km,[1],1960 µM
same,Km,[2],620 µM
same,Km,[3],1740 µM
Multidrug resistance-associated protein 1 (Homo sapiens) (protein) MALRGFCSADGSDPLWDWNVTWNTSNPDFTKCFQNTVLVWVPCFYLWACFPFYFLYLSRHDRGYIQMTPLNKTKTALGFLLWIVCWADLFYSFWERSRGIFLAPVFLVSPTLLGITMLLATFLIQLERRKGVQSSGIMLTFWLVALVCALAILRSKIMTALKEDAQVDLFRDITFYVYFSLLLIQLVLSCFSDRSPLFSETIHDPNPCPESSASFLSRITFWWITGLIVRGYRQPLEGSDLWSLNKEDTSEQVVPVLVKNWKKECAKTRKQPVKVVYSSKDPAQPKESSKVDANEEVEALIVKSPQKEWNPSLFKVLYKTFGPYFLMSFFFKAIHDLMMFSGPQILKLLIKFVNDTKAPDWQGYFYTVLLFVTACLQTLVLHQYFHICFVSGMRIKTAVIGAVYRKALVITNSARKSSTVGEIVNLMSVDAQRFMDLATYINMIWSAPLQVILALYLLWLNLGPSVLAGVAVMVLMVPVNAVMAMKTKTYQVAHMKSKDNRIKLMNEILNGIKVLKLYAWELAFKDKVLAIRQEELKVLKKSAYLSAVGTFTWVCTPFLVALCTFAVYVTIDENNILDAQTAFVSLALFNILRFPLNILPMVISSIVQASVSLKRLRIFLSHEELEPDSIERRPVKDGGGTNSITVRNATFTWARSDPPTLNGITFSIPEGALVAVVGQVGCGKSSLLSALLAEMDKVEGHVAIKGSVAYVPQQAWIQNDSLRENILFGCQLEEPYYRSVIQACALLPDLEILPSGDRTEIGEKGVNLSGGQKQRVSLARAVYSNADIYLFDDPLSAVDAHVGKHIFENVIGPKGMLKNKTRILVTHSMSYLPQVDVIIVMSGGKISEMGSYQELLARDGAFAEFLRTYASTEQEQDAEENGVTGVSGPGKEAKQMENGMLVTDSAGKQLQRQLSSSSSYSGDISRHHNSTAELQKAEAKKEETWKLMEADKAQTGQVKLSVYWDYMKAIGLFISFLSIFLFMCNHVSALASNYWLSLWTDDPIVNGTQEHTKVRLSVYGALGISQGIAVFGYSMAVSIGGILASRCLHVDLLHSILRSPMSFFERTPSGNLVNRFSKELDTVDSMIPEVIKMFMGSLFNVIGACIVILLATPIAAIIIPPLGLIYFFVQRFYVASSRQLKRLESVSRSPVYSHFNETLLGVSVIRAFEEQERFIHQSDLKVDENQKAYYPSIVANRWLAVRLECVGNCIVLFAALFAVISRHSLSAGLVGLSVSYSLQVTTYLNWLVRMSSEMETNIVAVERLKEYSETEKEAPWQIQETAPPSSWPQVGRVEFRNYCLRYREDLDFVLRHINVTINGGEKVGIVGRTGAGKSSLTLGLFRINESAEGEIIIDGINIAKIGLHDLRFKITIIPQDPVLFSGSLRMNLDPFSQYSDEEVWTSLELAHLKDFVSALPDKLDHECAEGGENLSVGQRQLVCLARALLRKTKILVLDEATAAVDLETDDLIQSTIRTQFEDCTVLTIAHRLNTIMDYTRVIVLDKGEIQEYGAPSDLLQQRGLFYSMAKDAGLV,Km,[4],2150 µM
